The supplement of paper PMC10567573

B1: SPOPL (parent)
chain: AKREETKAMESQRAYRFVQGKDWG
B2: MNAT1 (parent)
chain: SLREYNDFLEEVEEIVFNLTNNVD

Variants of: B1
Assay: protein stability index of a GFP-peptide fusion (GPS, HEK-293T) (PSI 1-6); higher = more stable
Conditions: c terminus: a fixed tail appended
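Further: lentivirally expressed fusions sorted by FACS into six bins by GFP to DsRed ratio, PSI derived from sequencing read proportions per bin multiplied by bin number.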

Protein stability index of substitutions, site by site:
Q19: A 1.15 | C 2.68 | D 2.54 | E 2.6 | F 3.19 | H 3.04 | I 2.6 | K 3.43 | L 2.15 | M 2.25 | N 2.85 | P 3.22 | R 3.93 | S 2.44 | T 2.73 | V 2.37 | W 2.38 | Y 2.77
G20: A 3.33 | C 2.97 | D 4.06 | E 4.31 | F 3.49 | H 3.33 | I 2.73 | K 3.64 | L 2.88 | M 2.58 | N 3.76 | P 2.83 | Q 4.14 | R 3.59 | S 3.35 | T 3.41 | V 3.19 | W 2.72 | Y 3.13
K21: A 2.96 | C 3.28 | D 3.99 | E 3.46 | F 3.62 | G 2.83 | H 2.32 | I 2.94 | L 2.67 | M 3.43 | N 3.11 | P 2.4 | Q 3.02 | R 2.51 | S 2.67 | T 3.04 | V 3.1 | W 3.44 | Y 3.08
D22: A 3.14 | C 3.13 | E 3.17 | F 2.94 | G 3.96 | H 3.1 | I 3.4 | K 3.77 | L 2.94 | M 2.95 | N 2.74 | P 3.18 | Q 3.18 | R 4.09 | S 3.42 | T 3.86 | V 3.82 | W 2.55 | Y 2.76
W23: A 4.8 | C 4.9 | D 4.4 | E 5.14 | F 3.53 | G 4.88 | H 4.77 | I 4.18 | K 4.87 | L 4.21 | M 4.86 | N 3.65 | P 4.79 | Q 4.8 | R 4.49 | S 4.91 | T 4.86 | V 4.72 | Y 4.05
G24: A 3.44 | C 2.18 | D 4.16 | E 3.24 | F 1.81 | H 3.39 | I 3 | K 4.32 | L 2.64 | M 2.54 | N 3.63 | P 2.45 | Q 4.07 | R 3.73 | S 3.49 | T 2.96 | V 2.91 | W 2.27 | Y 2.41

Variants of: B2
Assay: as above
Conditions: c terminus: a fixed tail appended

Protein stability index: each site, then its substitutions
S1: A 2.1 | C 1.72 | D 2.62 | E 2.03 | F 2.67 | H 2.24 | I 2.23 | K 1.94 | L 1.87 | M 1.82 | N 3.35 | P 3.1 | Q 2.81 | R 2.21 | T 1.85 | V 2.1 | W 2.11 | Y 1.69
L2: A 2.58 | C 2.67 | D 3.33 | E 3.35 | F 1.96 | G 3.08 | H 3.09 | I 2.31 | K 2.6 | M 2.13 | N 2.86 | P 3.72 | Q 2.72 | R 3.65 | S 2.71 | T 3.01 | V 2.33 | W 1.79 | Y 2.36
R3: A 2.58 | C 1.77 | D 2.32 | E 2.12 | F 2.6 | G 2.78 | H 2.71 | I 1.69 | K 2.06 | L 1.64 | M 1.91 | N 2.18 | P 3.52 | Q 2.94 | S 2.55 | T 1.83 | V 1.61 | W 1.62 | Y 1.86
E4: A 1.88 | C 1.95 | D 2.19 | F 2.34 | G 2.39 | H 2.66 | I 1.69 | K 2.75 | L 2.5 | M 2.26 | N 2.04 | P 2.98 | Q 2.27 | R 1.85 | S 2.31 | T 1.72 | V 2.08 | W 1.8 | Y 1.39
Y5: A 3.78 | C 3.11 | D 2.23 | E 4.35 | F 1.58 | G 3.91 | H 3.81 | I 2.61 | K 4.55 | L 2.16 | M 1.73 | N 4.14 | P 3.81 | Q 4.19 | R 4.19 | S 4.29 | T 4.08 | V 2.05 | W 2.56
N6: A 2.82 | C 1.78 | D 2.4 | E 1.76 | F 2.77 | G 3.17 | H 1.8 | I 2.63 | K 3.15 | M 1.76 | P 3.08 | Q 1.75 | R 2.23 | S 3.31 | T 2.27 | V 1.68 | W 2.38 | Y 1.87
D7: A 2.43 | C 2.27 | E 1.91 | F 2.32 | G 1.75 | H 1.31 | K 1.58 | L 1.94 | M 2.27 | N 2.49 | P 3 | Q 1.83 | R 1.63 | S 2.05 | T 1.47 | V 2.16 | W 1.96 | Y 1.79
F8: A 3.06 | C 3.8 | D 4.87 | E 5.2 | G 4.11 | H 4.72 | I 2.57 | K 4.28 | L 3.43 | M 3.51 | N 4.84 | P 4.78 | Q 4.55 | R 4.61 | S 4.91 | T 4.55 | V 3.63 | W 2.53 | Y 3.6
L9: A 4.09 | C 3.36 | D 4.5 | E 4.32 | F 3.05 | G 3.98 | H 4.22 | I 2.26 | K 3.98 | M 2.76 | N 4.6 | P 4.61 | Q 4.07 | R 3.83 | S 4.82 | T 4.07 | V 3.77 | W 1.79 | Y 3.59
E10: A 1.58 | C 2.74 | D 1.95 | F 2.97 | G 2.72 | I 1.3 | K 1.91 | L 1.52 | M 1.4 | N 1.55 | P 3.54 | Q 2.62 | R 1.86 | S 2.41 | T 2.01 | V 2.25 | W 1.95 | Y 2.15
E11: A 1.86 | C 2.33 | D 2.51 | F 1.49 | G 2.13 | H 2.07 | I 1.89 | K 2.07 | M 1.87 | N 1.68 | P 3.1 | Q 1.72 | R 2.17 | S 1.73 | T 1.97 | W 2.46 | Y 2.23
V12: A 3.22 | C 2.9 | D 4.97 | E 4.49 | F 1.86 | G 4.16 | H 3.48 | I 2.13 | K 4.72 | L 1.09 | M 1.74 | N 4.83 | P 3.91 | Q 4.08 | R 4.19 | S 4.5 | T 3.48 | W 1.87
